These results are taken from the DeepSol protein solubility set.

This data set is described as follows: soluble on expression in E. coli; label from the status in PepcDB or PDB records.
As for “MSLALVAEKLSEQWRAELDSRGLDAAPMADWMTVCRRLSLALAGTGLSLEEIRSLQRLPEADRVETHRERLLNSERFHHYWAERTARYLVGADEGPFIFYRGRRFRSWLTEQYAKNTRYDELVRMLITAEGVWTDRPEVNFHTVTFDSGDNAPDPIRLAARTTRAFLGVRIDCLQCHDDFLGNVSLGDASWIMCGVGDATMQAAAEGDAKYVLREGTQEDFHSLAAFFTAATSEGVQGLKDKRANYEYQYLYADETVPVEPNVPFLRELLPPRPENRQDDSSDDDSTDTTDESASDEPSDAPEPLELPRYLSDRERLAYWLTHTENKPAARAAVTRVWTLLFGQPPAIETDYGFQVGEVDNLPLDSPPSPLIETLTEAFIESDFNIRKLIRCITDSPAFRVSSRADFDVTEQHELAMAVFPVTHLRSEQVAGAAIQAGRIKTINRDSSFLVQLQQFGSLNDFLKRYGDLGEDEFTQQPVTITQRLVMLNGKLINETASPNPILNASSHIEMFAKDDEDVVRTLYLTVLNREPSERELEHFVKRLTAESREQNDPPTSRKQEITDLTWILLNSSEFAWNHEGHHHHHH”, the “soluble on expression in E. coli” value is reported as “not soluble”.

With “MSLANNKVHFIAIGGAVMHNLALALHHKGYLVSGSDDEIFEPSRTRLAAYNLLPAEMGWFPEKITTDLDAVILGMHARNDNPELQKARELGIKIYSFPEYIYEQSKDKQRIVIAGSHGKTTITAMIMHVLKTHKRKFDYLVGAKLDGFETMVQITDDAPIIIIEGDEYLTSPLDLTPKFLHYHHHIGLISGVAWDHINVYPTFEEYVKQFDAFADSTPKGGILIYSESDDLATLVADKPRPDVQAIGYSAPKHEIVNGITYLLTDKGKIELEVFGKHNLKNINAAKNVCLKIGITEAMFYDAIKTFKGAANRLEILGRGKHNVVFKDFAHAPSKLKATSKAVKKQFSDRKLIAVLELHTFSSLNKEFLSQYKDTYKAPDEPIVYFNPETVKHKRLEEITEADIIEAFDNPKLNVFTDSKKLEEFLFSHDWKHSNLLLMSSGNFGGIDLKKLTSHVLNQHAEGHHHHHH”, the “soluble on expression in E. coli” value is “soluble”.

“MSLAPRDLIDIDRIFMEPAVADYPRGREILSRFPNAERIAVPSHWNIPELHGNEGSVEDWVRIKRSTLVLGVKKGLAMRPNGRSAHFIAPSTSNGCAMACAYCYVPRRKGFSNPISLFVNVEAVSAAIARHAAKQGPLPEPDQIDEAAWVYDLGENGDLSVDAMICDTVRDLVGLFRTLPNAKGSFATKAVNRDLLAYDPQGRTRIRFSLMPAPIARVVDVRTAPIRERIAAIDDFVAAGYEVHVNFSPVILYEGWEADWAELFAEIDGSISDAAKAQLKCEIIMLTHNAGLHEVNLGWHPKAEALLWRPDIQETKRSEGGGDNLRYRTGEGHHHHHH”: the “soluble on expression in E. coli” value was “not soluble”.

On to “MSLAQLEHALQHDLQRLAHGGEPWVRPRVHPAGHVYDVVIVGAGQSGLGAAFALQRERVHNVLVIDENPPGQEGPWVTYARMQTLRTPKQITSIDLGVPTLTFRAWWEAQHGAAGWDALDKIPRGTWMDYLRWYRAALRLPVRNATQLVRIEPDAAPGIHRLHLAMGAPLMARKIILATGIQGGGQWQVPEWITQALPAQRYAHTSGPIDYAALAGKRVGILGGGASAFDNACFALDQGVARAEVFVRRAALPRVNPIRHMEQAGIIPRFAALPDADKYRMMASFFGRNQPPTNDTFQRACAHAGFALHLDAPWLGVEEHNDVVVVRTPQGEHRFDFLAIATGLVTDPRLRPELAALSGRIACWADRYQAPPGQANPVLDAHPYLGPGFELLPRTPDDAAAVDGLFAFNYSALINHGLSAAALSGLKVALPRLARAVADQLFLDDRQAMVEAYLGYDQAEFVGQWPQPTQAVALEHHHHHH”, for which the “soluble on expression in E. coli” value is given as “soluble”.

Take “MSLARANIDTDAILPKQFMKSIERTGFGVHLFDGFRYLDAGSLGMDCSRRPENPDFILNWPRYREASILLAGANFGCGSSREHAPWAIEQYGFRVLIASSFADIFRDNCFKNGLLPIVLASETMDRLFDEVSHQVGFELEVDLPRQTISCPAGWCIEFEMDSIRKAHLLEGIDEIGSTLSLSKKIGDFERARRQSHPWFFGAEGHHHHHH”: the “soluble on expression in E. coli” value was “not soluble”.
